Measured values published in article PMC5067715, “Structural characterization of the circadian clock protein complex composed of KaiB and KaiC by inverse contrast-matching small-angle neutron scattering” (Scientific Reports, 2016).
Where a chain is given by its changes, count along the chain named.

T1: wild-type KaiC (Synechococcus elongatus PCC 7942, UniProt Q79PF4 1-519)
T1 construct: KaiC, circadian clock protein of Synechococcus elongatus PCC 7942; also called KaiCWT; source: Escherichia coli, Strep-tagged recombinant protein, purified
T1 sequence (looked up): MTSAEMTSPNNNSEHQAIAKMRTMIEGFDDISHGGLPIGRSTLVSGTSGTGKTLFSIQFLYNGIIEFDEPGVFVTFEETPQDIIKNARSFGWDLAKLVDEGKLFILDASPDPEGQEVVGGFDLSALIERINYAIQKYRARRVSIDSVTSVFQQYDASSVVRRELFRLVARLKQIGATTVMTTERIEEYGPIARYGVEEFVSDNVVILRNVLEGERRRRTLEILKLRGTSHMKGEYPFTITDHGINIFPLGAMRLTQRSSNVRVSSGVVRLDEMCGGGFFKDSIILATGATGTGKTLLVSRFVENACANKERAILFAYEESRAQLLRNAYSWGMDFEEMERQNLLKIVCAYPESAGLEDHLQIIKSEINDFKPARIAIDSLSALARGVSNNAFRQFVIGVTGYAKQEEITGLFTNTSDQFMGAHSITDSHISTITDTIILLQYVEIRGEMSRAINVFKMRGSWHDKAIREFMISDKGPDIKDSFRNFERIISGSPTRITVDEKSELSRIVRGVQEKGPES

T2: KaiCDE (KaiC mutant with aspartate and glutamate residues at positions 431 and 432) (Synechococcus elongatus PCC 7942, UniProt Q79PF4 1-519, aspartate at position 431 | glutamate at position 432)
T2 construct: KaiC, circadian clock protein of Synechococcus elongatus PCC 7942, mimic of hyperphosphorylated KaiC; source: Escherichia coli, Strep-tagged recombinant protein, purified
T2 sequence (looked up): T1 sequence (looked up) with S431D, T432E

B1: KaiCDT (KaiC phospho-mimicking mutant with aspartate at Ser431) (natural protein, Synechococcus elongatus PCC 7942, UniProt Q79PF4 1-519, looked up)
chain: T1 sequence (looked up) with S431D
notes: KaiC, circadian clock protein of Synechococcus elongatus PCC 7942, mono-phosphorylation mimic at Ser431; 72d-KaiCDT is the same protein, 72.2% deuterated, used in iCM-SANS; Printed mass of KaiC 65 kDa; also called h-KaiCDT; 72d-KaiCDT
B2: KaiB (natural protein, Synechococcus elongatus PCC 7942, UniProt Q79PF5 1-102, looked up)
chain: MSPRKTYILKLYVAGNTPNSVRALKTLKNILEVEFQGVYALKVIDVLKNPQLAEEDKILATPTLAKVLPLPVRRIIGDLSDREKVLIGLDLLYGELQDSDDF
notes: KaiB, circadian clock protein of Synechococcus elongatus PCC 7942; printed mass of KaiB 14 kDa; Six KaiB protomers stand in the complex with the KaiC hexamer; also called h-KaiB; source: Escherichia coli, Strep-tagged recombinant protein, purified

Tests used:
[1] = target: the molecule itself; experiment: native MS; nanoflow ESI-MS under non-denaturing conditions; 20 uM KaiCDT mixed with 3.3, 10, 20 and 30 uM KaiB (monomer), 30 °C for 4 h, exchanged into 150 mM ammonium acetate pH 7.5
wild-type KaiC = target: T1, wild-type KaiC; experiment: native gel or EMSA; BN-PAGE (NativePAGE Novex Bis-Tris gel); KaiC variants incubated with KaiB at 30 °C for 12 h; conditions: both partners purified
[2] = target: T2, KaiCDE (KaiC mutant with aspartate and …); experiment: as above; conditions: both partners purified
[3] = target: B1; experiment: native MS; nanoflow ESI-MS under non-denaturing conditions; 20 uM KaiCDT mixed with 3.3, 10, 20 and 30 uM KaiB (monomer), 30 °C for 4 h, exchanged into 150 mM ammonium acetate pH 7.5; conditions: both partners purified

Row | Binder | stoichiometry N [1] | binding result (wild-type KaiC) | binding result [2] | stoichiometry N [3]
1 | B1 | 6 | – | – | –
2 | B2 | – | binds | binds | 6 KaiB protomers per KaiC hexamer
